One data set has as its system NRVM. Nature of the data set: TUNEL apoptosis of NRVMs under hypoxic conditions. The format is cell-based, rat. The settings on record: hypoxic conditions for 24 hours; agent alone.
For data set [1], the system named is serine synthesis pathway (SSP). Nature of the data set: 13C glucose isotopic tracer metabolic flux analysis in neonatal rat CMs. The data set is classed as cell-based. The method, then:
P3 neonatal rat CMs (2×10^6) were cultured in DMEM and transfected with Luc or PSAT1 modRNA. After 6 hours medium was changed with ^13C glucose-containing DMEM. Samples were collected at 10 min, 2 hours and 18 hours by flash freezing the cell culture plates using liquid nitrogen and stored at −80° C. Metabolites were extracted from cells using 80% methanol (Magadum A., et al., Circulation. 2020, 141 (15): 1249-1265). Targeted LC/MS analyses were performed on a Q Exactive Orbitrap mass spectrometer (Thermo Scientific) coupled to a Vanquish UPLC system (Thermo Scientific). The Q Exactive was operated in polarity-switching mode. A Sequant ZIC-HILIC column (2.1 mm i.d.×150 mm, Merck) was used for separation of metabolites with a flow rate was 150 μL/min. […] Relative metabolite quantitation was performed based on peak area for each metabolite. All data analyses were done using scripts written in house (Metabolomics Facility, Biotechnology Resource Center, Cornell University).

A further data set concerns cell cycle markers. Nature of the data set: qPCR of cell-cycle-promoting genes and cell-cycle inhibitors in heart post-MI. The data set is classed as in vivo, mouse. The settings on record: 2 days post-MI; compared to Luc modRNA. The method, then:
Total RNA was isolated using TRIzol™ RNA isolation and RNeasy® (Qiagen) then reverse transcribed with High-Capacity cDNA Reverse Transcription Kit (Applied Biosystems), according to the manufacturer's instructions. Real-time qPCR analyses were performed on a StepOnePlus™ Real-Time PCR System using SYBR™ Green (Applied Biosystems). The primer sequences were synthesized by IDT (see Table 4 below). Data were normalized to 18s expression, where appropriate (endogenous controls). Fold-changes in gene expression were determined by the […] method and were presented relative to an internal control.

Data set [2] is described as follows: Mouse MI model: echocardiography of cardiac function 28 days post-MI. The data set is classed as in vivo. The method, then:
In vivo transfection of modRNA was done as described previously in a recent method paper (Magadum A., et al., Circulation. 2020, 141 (15): 1249-1265; Sultana N., et al., Mol Ther, 2017, 25 (6): 1306-1315) using sucrose citrate buffer containing 10 μl of sucrose in nuclease-free water (0.3 g/ml), 10 μl of citrate (0.1M pH-7; Sigma) mixed with 10 μl of different concentrations of modRNA in saline to a total volume of 30 μl. Immediately after LAD ligation, mice received an intra-myocardial injection of modRNA (100 μg) in total volume of 30 μL at 3 different sites (mid-anterior×2 places and apical anterior) in the peri-infarct area (Magadum A., et al., Circulation. 2020, 141 (15): 1249-1265; Magadum, A., et al., 2021, Advanced Science, 9:2004661). For in vitro transfection, RNAiMAX transfection reagent (Life Technologies) was used according to manufacturer's recommendation (Magadum A., et al., Circulation. 2020, 141 (15): 1249-1265; Sultana N., et al., Mol Ther, 2017, 25 (6): 1306-1315).
All surgical and experimental procedures with mice were performed in accordance with protocols approved by Institutional Animal Care and Use Committees at Temple University Animal Care and Use Committee (IACUC). C57BL6 or CM-specific MADM mice (8-12-weeks-old) were anesthetized with isoflurane. MI was induced by permanent ligation of the LAD, as previously described (Garikipati, V. N. S., et al., 2019, Nature Communications, 10:4317). Briefly, the left thoracic region was shaved and sterilized. After intubation, the heart was exposed through a left thoracotomy. A suture was placed to ligate the LAD. The thoracotomy and skin were sutured closed in layers. Excess air was removed from the thoracic cavity, and the mouse was removed from ventilation when normal breathing was established. In order to determine the effect of modRNA on cardiovascular outcome after MI, modRNAs (100 μg/heart) were injected into the infarct zone immediately after LAD ligation (Magadum A., et al., Circulation. 2020, 141 (15): 1249-1265). For examination of heart histology, hearts were collected at the end of each study, quickly washed in PBS, weighed, and fixed in 4% PFA for cryo-sectioning and immunostainings. In all experiments, the surgeon was blinded to the treatment group. For assessment of heart histology, hearts were collected at the end of each study. The hearts were excised, briefly washed in PBS, perfused with perfusion buffer, weighed and fixed in 4% PFA at 4° C. overnight. The heart blocks were transverse sectioned at 6-8 μm using cryostat. The heart sections were further processed for histological evaluation using immunostaining (see below) or histological scar staining using Masson's trichrome staining kit (Sigma) according to standard procedures. Measuring the ratio of heart weight to body weight was done using a scale. This ratio was calculated as the heart tissue weight relative to the mouse total body weight in grams (g).
Mice underwent surgery to ligate the left anterior descending coronary artery as reported previously, followed by intramyocardial administration of exosomes or EVs (1×10^9) from hiPSC cells and IMR-90 cells suspended in PBS into the left ventricular wall (border zone) at two different locations and at the heart apex at one location immediately after left anterior descending ligation (Yue, Y., et al., 2020, Circulation Research, 126:315-329). The saline group underwent the same surgery but received saline without exosomes. Tissue was harvested at 7- or 28-days post-MI for histological analysis.

These results are taken from patent US20250215403A1, “Compositions and Methods for Cardiac Tissue Regeneration” (Temple University - Of The Commonwealth System Of Higher …, priority 2022, published 2025).

B1: PSAT1 modRNA: modified mRNA with N1-methylpseudouridine, transcribed in vitro, encoding phosphoserine aminotransferase 1 (ORF SEQ ID NO: 1, RNA SEQ ID NO: 2) (nucleic acid)
chain: AUGGAAGCCACCAAGCAAGUGGUUAACUUUGGGCCCGGGCCUGCCAAGCUGCCACACUCGGUAUUGUUGGAGAUCCAGAAGCAGCUACUAGACUACAGAGGACUCGGCAUCAGUGUGCUCGAAAUGAGUCACAGGUCAUCAGAUUUUGCCAAGAUUAUUGGCAAUACAGAGAAUCUUGUGAGGGAAUUGCUAGCUGUUCCCAACAACUACAAGGUGAUCUUUGUACAAGGAGGUGGGUCUGGCCAGUUCAGUGCUGUCCCCUUAAAUCUGAUUGGCCUGAAAGCUGGAAGGAGUGCUGACUACGUGGUGACCGGAGCUUGGUCAGCUAAGGCUGCGGAAGAAGCCAAGAAGUUUGGAACGGUGAACAUUGUCCACCCUAAACUUGGAAGUUACACAAAAAUUCCAGACCCAAGCACCUGGAACCUCAACCCGGACGCCUCCUAUGUAUACUUCUGUGCAAACGAGACUGUGCACGGGGUGGAGUUUGACUUCGUACCUGACGUCAAGGGAGCGGUGCUGGUCUGUGACAUGUCCUCAAACUUCUUAUCCAGGCCGGUGGAUGUUUCCAAGUUUGGUGUGAUUUUCGCUGGUGCUCAGAAGAAUGUUGGCUCUGCCGGGGUGACGGUGGUGAUUGUCCGGGAUGACCUGCUGGGGUUCUCGCUCAGAGAGUGCCCAUCAGUCCUUGACUACAAAGUGCAGGCUGGGAACAACUCUUUGUAUAACACACCUCCGUGCUUCAGCAUCUACGUCAUGGGCAUGGUCCUGGAAUGGAUCAAGAACAACGGCGGGGCCGCAGCCAUGGAGAAGCUCAGCUCCAUCAAAUCCCAAAUGAUUUAUGAGAUCAUUGAUAAUUCUCAAGGAUUUUAUGUAUGCCCAGUGGAGCGCCAGAAUAGAAGCAGGAUGAACAUCCCAUUUCGCAUUGGCAACGCCAAAGGAGACGAAGCUUUGGAAAAGCGGUUUCUUGACAAGGCGGUAGAACUCAACAUGAUCUCCUUGAAGGGGCACAGGUCAGUGGGAGGCAUUCGUGCCUCUCUGUAUAACGCUGUCACAACCGAAGACGUUGAGAAGCUGGCGGCCUUCAUGAAGAAUUUCUUGGAGAUGCAUCAGCUGUGA
modifications: N1-methylpseudouridine
As to B1, the “NRVM / CM apoptosis (TUNEL+ CMs)” value in the data set on NRVM is reported as “significantly inhibited”. In data set [1] (13C glucose flux), the glutathione levels result is on record as “Increased”; the “purines AMP and GMP levels” value was “increased”. Further, in data set [1] (13C glucose, vs Luc modRNA), the TCA cycle intermediates result is recorded as “Increased levels”; the “metabolites involved in the serine synthesis pathway (SSP), including phosphoserine, serine, and glycine” value is reported as “significant elevation”. Further, in the data set on cell cycle markers, the “expression of positive cell cycle markers” value is “induced” and the “negative regulators of cell cycle markers” value is on record as “inhibiting”. In data set [2], the “LV end-diastolic posterior wall thickness” value is given as “significantly increased” and the “LV end-systolic posterior wall thickness” value is “significantly increased”. Besides, the “Fractional Shortening (% FS)” value in data set [2] (compared to Luc) is recorded as “significantly improved”. In data set [2] (compared to control), the “LVIDd (left ventricular internal diameter end-diastole)” value was “Improvements” and the “LVIDs (left ventricular internal diameter end-systole)” value is “Improvements”. For the same molecule, the “Ejection Fraction (% EF)” value in data set [2] (myocardial delivery, compared to Luc) was “significantly improved”.
